The source of these data is paper PMC7610778 (Science (New York, N.Y.), 2020).

One series addresses T1, mCherry-Atg11 (yeast (S. cerevisiae), UniProt Q12527 1-1178).
T1 sequence: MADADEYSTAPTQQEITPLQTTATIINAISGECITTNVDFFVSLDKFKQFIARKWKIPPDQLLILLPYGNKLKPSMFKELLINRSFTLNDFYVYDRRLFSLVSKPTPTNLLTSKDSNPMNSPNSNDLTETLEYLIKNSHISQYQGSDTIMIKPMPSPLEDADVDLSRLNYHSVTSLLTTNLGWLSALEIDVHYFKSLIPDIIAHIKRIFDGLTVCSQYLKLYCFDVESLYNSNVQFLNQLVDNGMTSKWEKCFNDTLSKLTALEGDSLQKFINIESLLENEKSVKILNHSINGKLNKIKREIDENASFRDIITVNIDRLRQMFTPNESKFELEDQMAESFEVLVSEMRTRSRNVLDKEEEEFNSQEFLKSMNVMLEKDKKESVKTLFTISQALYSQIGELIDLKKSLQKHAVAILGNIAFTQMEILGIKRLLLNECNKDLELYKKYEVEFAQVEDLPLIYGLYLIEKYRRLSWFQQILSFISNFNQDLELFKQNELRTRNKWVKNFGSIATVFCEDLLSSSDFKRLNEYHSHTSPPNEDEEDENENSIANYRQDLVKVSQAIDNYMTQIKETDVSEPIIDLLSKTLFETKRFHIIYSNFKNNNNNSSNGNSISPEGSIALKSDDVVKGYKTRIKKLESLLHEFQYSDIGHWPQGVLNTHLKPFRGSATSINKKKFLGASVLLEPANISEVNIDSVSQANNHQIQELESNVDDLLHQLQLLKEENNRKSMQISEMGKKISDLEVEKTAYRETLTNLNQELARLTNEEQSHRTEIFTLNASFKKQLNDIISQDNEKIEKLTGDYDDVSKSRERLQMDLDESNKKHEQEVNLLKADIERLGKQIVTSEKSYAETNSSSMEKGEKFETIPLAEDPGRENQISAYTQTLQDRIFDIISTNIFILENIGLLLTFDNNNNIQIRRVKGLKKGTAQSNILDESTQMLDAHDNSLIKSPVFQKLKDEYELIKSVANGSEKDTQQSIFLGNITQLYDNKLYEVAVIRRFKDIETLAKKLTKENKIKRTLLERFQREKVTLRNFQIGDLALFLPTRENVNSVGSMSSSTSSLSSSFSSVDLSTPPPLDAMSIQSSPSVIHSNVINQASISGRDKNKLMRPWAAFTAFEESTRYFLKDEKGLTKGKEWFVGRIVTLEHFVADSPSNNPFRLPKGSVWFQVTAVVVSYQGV
Briefly: pull-down.

Series [1] concerns the molecule itself.
Series [2] concerns the target T2, Atg12–Atg5-Atg16-mCherry complex (yeast (S. cerevisiae), UniProt P38316;Q12380;Q03818, Atg12–Atg5 conjugate | Atg12–Atg5 conjugate).
T2 sequence 1: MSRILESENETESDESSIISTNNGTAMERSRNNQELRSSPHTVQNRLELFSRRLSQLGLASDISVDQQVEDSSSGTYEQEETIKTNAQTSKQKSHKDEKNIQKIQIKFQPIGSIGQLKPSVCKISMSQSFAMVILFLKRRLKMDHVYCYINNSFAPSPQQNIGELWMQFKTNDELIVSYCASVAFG
T2 sequence 2: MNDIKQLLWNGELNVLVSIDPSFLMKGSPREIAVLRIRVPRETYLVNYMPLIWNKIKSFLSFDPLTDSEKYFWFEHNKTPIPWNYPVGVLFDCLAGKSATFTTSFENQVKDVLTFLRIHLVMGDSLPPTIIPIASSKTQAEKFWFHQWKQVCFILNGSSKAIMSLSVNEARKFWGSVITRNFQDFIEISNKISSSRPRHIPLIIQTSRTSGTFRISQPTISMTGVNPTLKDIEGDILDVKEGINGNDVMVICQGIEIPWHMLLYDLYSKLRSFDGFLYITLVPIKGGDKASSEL
T2 sequence 3: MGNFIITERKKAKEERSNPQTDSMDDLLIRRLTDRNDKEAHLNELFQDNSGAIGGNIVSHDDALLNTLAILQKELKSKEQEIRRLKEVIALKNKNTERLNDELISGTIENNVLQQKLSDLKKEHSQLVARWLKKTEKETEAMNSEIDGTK
In words: membrane recruitment to GUVs imaged by microscopy.

A further series concerns the target Atg2-Atg18-CBP complex (yeast (S. cerevisiae), UniProt P53855;P43601). Briefly: pull-down.
The target in a further series is Atg2-mEGFP (yeast (S. cerevisiae), UniProt P53855 1-1592). In words: pull-down.
Chain of Atg2-mEGFP (P53855 whole entry): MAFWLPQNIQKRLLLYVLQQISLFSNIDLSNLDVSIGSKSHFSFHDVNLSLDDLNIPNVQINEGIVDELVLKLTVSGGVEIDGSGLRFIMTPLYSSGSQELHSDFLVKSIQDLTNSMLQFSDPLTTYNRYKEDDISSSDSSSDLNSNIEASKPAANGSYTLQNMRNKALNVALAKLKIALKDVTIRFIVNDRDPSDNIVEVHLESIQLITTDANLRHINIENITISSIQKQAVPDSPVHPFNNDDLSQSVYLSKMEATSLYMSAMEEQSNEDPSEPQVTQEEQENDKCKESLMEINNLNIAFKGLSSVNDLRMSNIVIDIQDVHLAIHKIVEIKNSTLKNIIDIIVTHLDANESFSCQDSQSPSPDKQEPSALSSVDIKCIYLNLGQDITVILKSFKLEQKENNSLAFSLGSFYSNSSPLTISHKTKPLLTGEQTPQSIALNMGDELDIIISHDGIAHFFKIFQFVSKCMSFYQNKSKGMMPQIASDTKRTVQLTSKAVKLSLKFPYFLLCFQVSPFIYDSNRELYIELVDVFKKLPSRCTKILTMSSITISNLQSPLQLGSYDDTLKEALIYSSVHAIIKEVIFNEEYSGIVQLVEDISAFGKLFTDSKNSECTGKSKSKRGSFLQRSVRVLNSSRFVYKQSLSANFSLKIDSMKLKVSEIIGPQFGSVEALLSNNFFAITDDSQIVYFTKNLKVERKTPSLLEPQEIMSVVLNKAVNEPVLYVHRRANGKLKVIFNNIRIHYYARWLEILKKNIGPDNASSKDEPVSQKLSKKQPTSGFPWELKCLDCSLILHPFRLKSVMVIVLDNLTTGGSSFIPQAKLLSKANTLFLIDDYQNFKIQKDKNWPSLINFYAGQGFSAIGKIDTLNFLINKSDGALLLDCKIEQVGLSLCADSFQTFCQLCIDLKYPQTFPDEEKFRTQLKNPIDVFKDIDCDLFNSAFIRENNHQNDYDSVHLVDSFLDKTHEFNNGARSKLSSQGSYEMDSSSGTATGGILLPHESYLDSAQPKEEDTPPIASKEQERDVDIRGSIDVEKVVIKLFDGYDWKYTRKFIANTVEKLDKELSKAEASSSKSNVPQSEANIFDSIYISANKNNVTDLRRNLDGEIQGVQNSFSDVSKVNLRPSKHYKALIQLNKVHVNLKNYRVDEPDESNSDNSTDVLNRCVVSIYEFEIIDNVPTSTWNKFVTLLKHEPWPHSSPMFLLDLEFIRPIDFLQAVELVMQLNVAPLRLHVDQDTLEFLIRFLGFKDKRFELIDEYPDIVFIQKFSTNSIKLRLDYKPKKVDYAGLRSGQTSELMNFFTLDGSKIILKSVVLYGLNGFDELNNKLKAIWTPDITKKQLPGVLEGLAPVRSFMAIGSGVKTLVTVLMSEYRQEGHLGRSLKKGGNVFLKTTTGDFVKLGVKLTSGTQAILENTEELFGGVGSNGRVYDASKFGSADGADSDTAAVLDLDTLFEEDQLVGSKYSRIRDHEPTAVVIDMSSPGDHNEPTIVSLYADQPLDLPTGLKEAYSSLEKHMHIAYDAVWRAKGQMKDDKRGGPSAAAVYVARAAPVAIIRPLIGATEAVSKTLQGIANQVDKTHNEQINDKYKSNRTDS

Usually stoichiometry N stands for a count of units in the complex or per binding partner.

Chain of Atg2-Atg18-CBP complex (P53855 whole entry, chain 1 of 2): as the sequence (P53855 whole entry) above
Chain of Atg2-Atg18-CBP complex (P43601 whole entry, chain 2 of 2): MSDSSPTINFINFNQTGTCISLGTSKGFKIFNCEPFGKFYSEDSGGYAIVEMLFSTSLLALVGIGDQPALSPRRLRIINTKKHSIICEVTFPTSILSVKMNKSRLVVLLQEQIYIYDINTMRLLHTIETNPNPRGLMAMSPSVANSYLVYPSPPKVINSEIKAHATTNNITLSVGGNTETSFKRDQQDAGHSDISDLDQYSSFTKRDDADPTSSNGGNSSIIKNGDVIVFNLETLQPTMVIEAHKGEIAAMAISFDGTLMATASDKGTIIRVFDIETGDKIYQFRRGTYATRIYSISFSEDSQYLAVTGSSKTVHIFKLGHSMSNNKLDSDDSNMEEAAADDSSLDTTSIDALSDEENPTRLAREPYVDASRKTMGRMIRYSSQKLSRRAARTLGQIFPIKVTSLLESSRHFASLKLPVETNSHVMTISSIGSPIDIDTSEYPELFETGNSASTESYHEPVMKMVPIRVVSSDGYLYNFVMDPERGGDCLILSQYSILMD

B1: Atg9-EGFP in proteoliposomes (Atg9 PLs) (natural protein)
chain: MERDEYQLPNSHGKNTFLSRIFGLQSDEVNPSLNSQEMSNFPLPDIERGSSLLHSTNDSREDVDENDLRVPESDQGTSTEEEDEVDEEQVQAYAPQISDGLDGDHQLNSVTSKENVLETEKSNLERLVEGSTDDSVPKVGQLSSEEEEDNEFINNDGFDDDTPLFQKSKIHEFSSKKSNTIEDGKRPLFFRHILQNNRPQRDTQKLFTSSNAIHHDKDKSANNGPRNINGNQKHGTKYFGSATQPRFTGSPLNNTNRFTKLFPLRKPNLLSNISVLNNTPEDRINTLSVKERALWKWANVENLDIFLQDVYNYYLGNGFYCIILEKILNICTLLFVVFVSTYMGHCVDYSKLPTSHRVSDIIIDKCYSNSITGFTKFFLWMFYFFVILKIVQLYFDVQKLSELQNFYKYLLNISDDELQTLPWQNVIQQLMYLKDQNAMTANVVEVKAKNRIDAHDVANRIMRRENYLIALYNSDILNLSLPIPLFRTNVLTKTLEWNINLCVMGFVFNESGFIKQSILKPSQREFTREELQKRFMLAGFLNIILAPFLVTYFVLLYFFRYFNEYKTSPGSIGARQYTPIAEWKFREYNELYHIFKKRISLSTTLANKYVDQFPKEKTNLFLKFVSFICGSFVAILAFLTVFDPENFLNFEITSDRSVIFYITILGAIWSVSRNTITQEYHVFDPEETLKELYEYTHYLPKEWEGRYHKEEIKLEFCKLYNLRIVILLRELTSLMITPFVLWFSLPSSAGRIVDFFRENSEYVDGLGYVCKYAMFNMKNIDGEDTHSMDEDSLTKKIAVNGSHTLNSKRRSKFTAEDHSDKDLANNKMLQSYVYFMDDYSNSENLTGKYQLPAKKGYPNNEGDSFLNNKYSWRKQFQPGQKPELFRIGKHALGPGHNISPAIYSTRNPGKNWDNNNNGDDIKNGTNNATAKNDDNNGNNDHEYVLTESFLDSGAFPNHDVIDHNKMLNSNYNGNGILNKGGVLGLVKEYYKKSDVGR
For the molecule B1, in the series with mCherry-Atg11, the binding result is recorded as “binds”.

B2: Atg11 (full length; fluorescent tag of this experiment not told) (natural protein)
chain: T1 sequence
Consider B2, for which the “stoichiometry N” value in series [1] worked out at 2.

B3: Atg21 (natural protein)
chain: MKVLQFNQDATCCVVAASSHQISIFNCDPFGKCFEIDTKNSKKKTSNNNGSASNSESRNNEESILITNGSRDRTDAEEEEDNEDNALVTGNILKEGEFVIEMLFSTSLIAIADRGQGLNKGKKLKIVNTKRKCTICEIVFPHEIVDVVMNRKRMCVLLESDQIFIYDISCMKPLETIDLWEDHYKRSQANSFSNASNTGTLEGDSANLNRVATNLLANATQKSVNGSNPSVRTRRNSLRSKIRPRMVLSNDDRSILCFTAYSSPKKNKPNSEALYDVVIYDTLNVTPVNYLNSVHKGNVACLAVSHDGKLLATASDKGTIIRVFHTGVDSDYMSSRSLFKEFRRGTRLCNLYQLAFDKSMTMIGCVGDTDTIHLFKLDDASNSLPGDNSSNGHWNEEEYILASNSNPSMGTPKEIPLSKPRIANYFSKKIKSSIPNQNLSRNFAYITVNESNRSCLGFPDEFPNQVYIASDDGTFSIYSIPSKPGECVLTKNNKFT
Consider B3, for which, in series [2], the binding result is listed as “binds”.

B4: Atg12–Atg5-Atg16-GFP complex (complex)
chain 1: T2 sequence 1
chain 2: T2 sequence 2
chain 3: T2 sequence 3
modifications: Atg12–Atg5 conjugate | Atg12–Atg5 conjugate
Turning to B4, in the series with Atg2-Atg18-CBP complex, the binding result is on record as “binds”.

B5: Atg5-mCherry-Atg16(1-46) (complex)
chain 1: T2 sequence 2
chain 2: MGNFIITERKKAKEERSNPQTDSMDDLLIRRLTDRNDKEAHLNELF
With B5, the binding result with Atg2-mEGFP is given as “binds”.

B6: Atg19-3D (S390D, S391D, S396D) (natural protein)
chain: MNNSKTNQQMNTSMGYPLTVYDECNKFQLIVPTLDANIMLWCIGQLSLLNDSNGCKHLFWQPNDKSNVRILLNNYDYGHLFKYLQCQRKCSVYIGEGTLKKYNLTISTSFDNFLDLTPSEEKESLCREDAHEDPVSPKAGSEEEISPNSTSNVVVSRECLDNFMKQLLKLEESLNKLELEQKVTNKEPNHRISGTIDIPEDRSELVNFFTELKTVKQLEDVFQRYHDYERLSQECDSKTEIASDHSKKETKIEVEPPNERSLQITMNQRDNSLYFQLFNNTNSVLAGNCKLKFTDAGDKPTTQIIDMGPHEIGIKEYKEYRYFPYALDLEAGSTIEIENQYGEVIFLGKYGSSPMINLRPPSRLSAESLQASQEPFYSFQIDTLPELDDDDIISTDISLSYDGDDNEKALTWEEL
B6: the binding result in the series with mCherry-Atg11 was “binds”.
